US20180016327A1 (Chugai, published 2018)
Positions count from the first letter of the chain named.

B1: CFP0021 (antibody, V domains shown)
VH: QVQLVESGGGLVQPGGSLRLSCAASGFTFSDHYMDWVRQAPGKGLEWVGRTRNKANSYTTEYAASVKGRFTISRDDSKNSLYLQMNSLKTEDTAVYYCARTGMMYWGIFDVWGQGTLVTVSS
VL: DIQMTQSPSSLSASVGDRVTITCRASQSIEDDLAWYQQKPGKAPKLLIYHASTLQSGVPSRFSGSGSGTDFTLTISSLQPEDFATYYCQQHDSYPLTFGQGTKVEIK
notes: IgG format
B2: CFP0017 17L 34N (antibody, V domains shown)
VH: QVQLVQSGAEVKKPGSSVKVSCKASGGTFSSYAISWVRQAPGQGLEWMGGIIPIFGTANYAQKFQGRVTITADESTSTAYMELSSLRSEDTAVYYCARGGWWGGALDYWGQGTLVTVSS
VL: B1 VL with A34N, T53S, H91S
B3: CFP0017 17L 53T (antibody, V domains shown)
VH: B2 VH
VL: B1 VL with H91S
B4: CFP0017 17L 53N (antibody, V domains shown)
VH: B2 VH
VL: B1 VL with T53N, H91S
B5: CFP0017 17L 53H (antibody, V domains shown)
VH: B2 VH
VL: B1 VL with T53H, H91S
B6: CFP0021 21L 32N (antibody, V domains shown)
VH: B1 VH
VL: B1 VL with D32N
B7: CFP0021 21L 34N (antibody, V domains shown)
VH: B1 VH
VL: B1 VL with A34N
B8: CFP0021 21L 50T (antibody, V domains shown)
VH: B1 VH
VL: B1 VL with H50T
B9: CFP0021 21L 50Q (antibody, V domains shown)
VH: B1 VH
VL: B1 VL with H50Q
B10: CFP0021 21L 92N (antibody, V domains shown)
VH: B1 VH
VL: B1 VL with D92N
B11: CFP0021 21L 93R (antibody, V domains shown)
VH: B1 VH
VL: B1 VL with S93R
B12: CFP0021 21L 50S (antibody, V domains shown)
VH: B1 VH
VL: B1 VL with H50S
B13: CFP0021 21L 91R (antibody, V domains shown)
VH: B1 VH
VL: B1 VL with H91R
B14: CFP0021 21L 94H (antibody, V domains shown)
VH: B1 VH
VL: B1 VL with Y94H
B15: CFP0021 21L 94W (antibody, V domains shown)
VH: B1 VH
VL: B1 VL with Y94W
B16: CFP0021 21L 96I (antibody, V domains shown)
VH: B1 VH
VL: B1 VL with L96I
B17: CFP0021 21L 93N (antibody, V domains shown)
VH: B1 VH
VL: B1 VL with S93N
B18: CFP0021 21L 50Y (antibody, V domains shown)
VH: B1 VH
VL: B1 VL with H50Y
B19: CFP0021 21L 30D (antibody, V domains shown)
VH: B1 VH
VL: B1 VL with E30D
B20: CFP0021 21L 53N (antibody, V domains shown)
VH: B1 VH
VL: B1 VL with T53N
B21: CFP0021 21L 96F (antibody, V domains shown)
VH: B1 VH
VL: B1 VL with L96F
B22: CFP0021 21L 30H (antibody, V domains shown)
VH: B1 VH
VL: B1 VL with E30H
B23: CFP0021 21L 31N (antibody, V domains shown)
VH: B1 VH
VL: B1 VL with D31N
B24: CFP0021 21L 96Y (antibody, V domains shown)
VH: B1 VH
VL: B1 VL with L96Y
B25: CFP0021 21L 91S (antibody, V domains shown)
VH: B1 VH
VL: B1 VL with H91S
B26: CFP0021 21L 93D (antibody, V domains shown)
VH: B1 VH
VL: B1 VL with S93D
B27: CFP0021 21L 93G (antibody, V domains shown)
VH: B1 VH
VL: B1 VL with S93G
B28: CFP0021 21L 50A (antibody, V domains shown)
VH: B1 VH
VL: B1 VL with H50A
B29: CFP0021 21L 53H (antibody, V domains shown)
VH: B1 VH
VL: B1 VL with T53H
B30: CFP0021 21L 50E (antibody, V domains shown)
VH: B1 VH
VL: B1 VL with H50E
B31: CFP0021 21L 94T (antibody, V domains shown)
VH: B1 VH
VL: B1 VL with Y94T
B32: CFP0021 21L 96P (antibody, V domains shown)
VH: B1 VH
VL: B1 VL with L96P
B33: CFP0021 21L 50D (antibody, V domains shown)
VH: B1 VH
VL: B1 VL with H50D
B34: CFP0021 21L 32Q (antibody, V domains shown)
VH: B1 VH
VL: B1 VL with D32Q
B35: CFP0021 21L 53S (antibody, V domains shown)
VH: B1 VH
VL: B1 VL with T53S
B36: CFP0021 21L 96W (antibody, V domains shown)
VH: B1 VH
VL: B1 VL with L96W
B37: CFP0021 21L 94F (antibody, V domains shown)
VH: B1 VH
VL: B1 VL with Y94F
B38: CFP0021 21L 96H (antibody, V domains shown)
VH: B1 VH
VL: B1 VL with L96H
B39: CFP0021 21L 94S (antibody, V domains shown)
VH: B1 VH
VL: B1 VL with Y94S
B40: CFP0021 21L 30S (antibody, V domains shown)
VH: B1 VH
VL: B1 VL with E30S
B41: CFP0021 21L 91Y (antibody, V domains shown)
VH: B1 VH
VL: B1 VL with H91Y
B42: CFP0021 21L 92S (antibody, V domains shown)
VH: B1 VH
VL: B1 VL with D92S
B43: CFP0021 21L 30A (antibody, V domains shown)
VH: B1 VH
VL: B1 VL with E30A
B44: CFP0021 21L 31H (antibody, V domains shown)
VH: B1 VH
VL: B1 VL with D31H
B45: CFP0021 21L 31A (antibody, V domains shown)
VH: B1 VH
VL: B1 VL with D31A

What follows are binders tested against T1, human C5 (human, UniProt P01031 19-673; P01031 678-1676, Beta and alpha chains are disulfide-linked and the protein is glycosylated.) (assay: Biacore, captured antibody, pH 7.4, 37 C;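 further: biacore binding response of anti-C5 antibody light chain variants captured on chip with human C5 injected, ACES running buffer containing 1.2 mM CaCl₂, parent light chain antibody set to 100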).
T1 construct: Either in-house recombinant C5 or plasma derived C5 (CALBIOCHEM) was used; also called recombinant human C5; plasma derived human C5

| Binder | % binding (parent = 100) [%] |
| --- | --- |
| B1 | 100 |
| B2 | -9.4 |
| B3 | 109 |
| B4 | 52.9 |
| B5 | 69.6 |
| B6 | 17.5 |
| B7 | 14.4 |
| B8 | 38.8 |
| B9 | 61.1 |
| B10 | 4.7 |
| B11 | 5.2 |
| B12 | 40.6 |
| B13 | 1.5 |
| B14 | 2.6 |
| B15 | 1.3 |
| B16 | 19.7 |
| B17 | 28.5 |
| B18 | 74.9 |
| B19 | 87.5 |
| B20 | 97.6 |
| B21 | 39.9 |
| B22 | 59.7 |
| B23 | 52.3 |

| Binder | % binding (parent = 100) [%] |
| --- | --- |
| B24 | 1.4 |
| B25 | 17.8 |
| B26 | 22.2 |
| B27 | 37.9 |
| B28 | 33.4 |
| B29 | 75.7 |
| B30 | 44 |
| B31 | 1.3 |
| B32 | 4.3 |
| B33 | 53 |
| B34 | 80.4 |
| B35 | 73.2 |
| B36 | 0.8 |
| B37 | 0.9 |
| B38 | -0.7 |
| B39 | 0.3 |
| B40 | 76.7 |
| B41 | 79.5 |
| B42 | 4.8 |
| B43 | 76.9 |
| B44 | 41.3 |
| B45 | 31.2 |
